US20130089554A1 (EMERGENT PRODUCT DEVELOPMENT SEATTLE, published 2013)

T1: RON Sema-PSI-AFH protein (human, UniProt Q04912 25-568)
T1 construct: Produced in CHOK1SV cells; also called soluble RON Sema-PSI-AFH; not shown: c-terminal tag including avidin, 3xFLAG and 6x histidine tags
T1 chain: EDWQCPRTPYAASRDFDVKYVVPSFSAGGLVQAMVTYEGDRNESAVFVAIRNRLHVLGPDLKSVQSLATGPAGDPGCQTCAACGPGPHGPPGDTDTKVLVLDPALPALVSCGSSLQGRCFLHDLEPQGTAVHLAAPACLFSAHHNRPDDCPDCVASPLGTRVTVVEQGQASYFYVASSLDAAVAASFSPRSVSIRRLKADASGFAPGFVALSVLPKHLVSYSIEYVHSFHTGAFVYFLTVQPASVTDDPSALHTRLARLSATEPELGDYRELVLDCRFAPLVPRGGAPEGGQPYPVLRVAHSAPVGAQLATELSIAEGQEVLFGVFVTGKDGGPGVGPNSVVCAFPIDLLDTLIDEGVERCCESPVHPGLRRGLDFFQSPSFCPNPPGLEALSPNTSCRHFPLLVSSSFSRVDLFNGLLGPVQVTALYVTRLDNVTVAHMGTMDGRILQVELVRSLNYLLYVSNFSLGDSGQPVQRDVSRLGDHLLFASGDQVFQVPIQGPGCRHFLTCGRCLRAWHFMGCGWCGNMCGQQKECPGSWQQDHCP


Assays:
[1] = biological target: T2, recombinant RON Sema-PSI protein (R&D Systems #1947-MS) (human, UniProt Q04912 25-571); assay: ELISA, plate coated with 1 µg/ml recombinant RON Sema-PSI
T2 construct: Bought protein, expressed in NS0 cells; not shown: carboxyl-terminal histidine tag
Method: (§1) To determine binding of murine antibodies to the Sema-PSI domain of RON, 96-well EIA/RIA microplates were coated with 1 μg/ml recombinant RON Sema-PSI (R&D Systems #1947-MS, Minneapolis, Minn.). This protein includes the Sema and PSI domains of human RON (Glu 25-Leu 571; see SEQ ID NO:784) coupled to a carboxyl-terminal histidine tag and expressed in the NS0 mouse myeloma cell line. Plates were blocked with 10% FBS in DPBS prior to adding hybridoma supernatants diluted […] in serum diluent. Murine antibodies bound to recombinant RON Sema-PSI were detected as described above.
(§2) “Diluent only” samples represent background binding in each assay when only serum diluent was run as the sample. As a positive control for IgG measurement and recombinant RON Sema-PSI binding, 250 ng/ml of an anti-human RON antibody (R&D Systems #MAB691, Minneapolis, Minn.) was tested in both ELISAs.

[2] = biological target: T3, human RON (recepteur d'origine Nantaise, MST1R), full length on cells (human, UniProt Q04912 25-1400); assay: flow cytometry, NIH/3T3 cells transfected with human RON, hybridoma supernatant
T3 construct: Over-expressed on transfected NIH/3T3 cells, or native on BxPC-3 and MDA-MB-453 cells; also called native human RON
Text: NIH/3T3 cells transfected with human or macaque RON or empty vector, were dissociated with trypsin and stained at 1.6×10⁵ cells/sample on ice with hybridoma supernatants or purified antibodies diluted in Staining Buffer (2% FBS in Dulbecco's PBS). Unlabeled murine IgG (SouthernBiotech, Birmingham, Ala.) and the DX07 anti-RON β-chain antibody (Santa Cruz Biotechnology, Santa Cruz, Calif.) were employed as negative and positive controls respectively. Murine antibodies were detected with R-PE-conjugated goat anti-mouse IgG (SouthernBiotech). Samples were analyzed on a BD FACSCalibur flow cytometer fitted with an HTS using PlateManager and CellQuest Pro software (BD Biosciences, San Jose, Calif.). Data was plotted using FlowJo software (Tree Star, Ashland, Oreg.).
NIH/3T3 cells transfected with empty vector (dashed), human RON (dotted) or Macaca mulatta RON (solid) were stained with secondary antibody alone (FIG. 1A), 1 mg/ml murine IgG (FIG. 1B), 1 mg/ml DX07 anti-RON antibody (FIG. 1C), RON-e01 anti-RON hybridoma supernatant (FIG. 1D) or RON-f01 anti-RON hybridoma supernatant (FIG. 1E).

RON Sema-PSI-AFH protein [3] = biological target: T1, RON Sema-PSI-AFH protein; assay: SPR (Biacore T100); Interceptor captured by immobilized anti-human Fc, soluble RON Sema-PSI-AFH flowed over
Method: (§3) The binding kinetics of RON-f murine antibody, SMIP and Interceptor to soluble RON Sema-PSI-AFH were determined using a Biacore T100 (GE Healthcare, Piscataway, N.J.). Anti-RON murine antibody was captured using immobilized anti-mouse Fc polyclonal antibody while the SMIP and Interceptor were captured by anti-human Fc monoclonal antibody. The capture antibodies, both from GE Healthcare, were covalently conjugated to a carboxylmethyl dextran surface (CM4) via amines using N-ethyl-N′-(3-dimethylaminopropyl)-carbodiimide hydrochloride and N-hydroxysuccinimide. The unoccupied sites of the activated surface were blocked by ethanolamine. […] During each cycle, a single concentration of soluble RON Sema-PSI-AFH was injected and then allowed to dissociate. At the end of each cycle, the surface was regenerated gently using 3M MgCl₂ which dissociates protein bound to the capture antibodies. Signal associated with binding to the reference cell was used to subtract for bulk refractive changes and blank (buffer-only) injections were used to correct for drift and system noise.
(§4) Kinetic parameters and affinities were determined using BIAevaluation software. The kₐ (M⁻¹s⁻¹) and kd (s⁻¹) rates of the interaction were used to calculate the affinity constant, KD (M), of the antibody/receptor interaction. The KD is defined as the ratio of the kd and kₐ constants (kd/kₐ). The RON-f01 murine antibody was tested in a single experiment while the RON-f02 SMIP and RON-f03 Interceptor molecules were each tested in three independent experiments. RON-f molecules were captured on a sensor chip with immobilized anti-Fc while soluble RON Sema-PSI-AFH protein was flowed over the surface at varying concentrations.

[4] = biological target: T2, recombinant RON Sema-PSI protein (R&D …); assay: ELISA, plate coated with 1 µg/ml recombinant RON Sema-PSI, hybridoma supernatants
Method: as §1, §2

RON Sema-PSI-AFH protein [5] = biological target: T1, RON Sema-PSI-AFH protein; assay: SPR (Biacore T100); antibody captured by immobilized anti-mouse Fc, soluble RON Sema-PSI-AFH flowed over
Method: as §3, §4

binding result [1]	binding result [2]	Kd (RON Sema-PSI-AFH protein [3]) [nM]	koff (RON Sema-PSI-AFH protein [3]) [s⁻¹]	kon (RON Sema-PSI-AFH protein [3]) [M⁻¹ s⁻¹]	binding result [4]	Kd (RON Sema-PSI-AFH protein [5]) [nM]	koff (RON Sema-PSI-AFH protein [5]) [s⁻¹]	kon (RON Sema-PSI-AFH protein [5]) [M⁻¹ s⁻¹]	Binder
no binding	binds								RON-e01 murine antibody (11H09 hybridoma) (antibody, V domains shown, Murine monoclonal antibody from a hybridoma, used as supernatant or purified; also called RON-e01 Antibody) VH: QVQLQQSGAELAKPGASVKMSCKSSGYTFTSYWIHWVKERPGQGLEWIGYIYPTTGYTESNQKFKDKATLTADKSSSTAYMQLSSLTSEDSAVYYCFLLRPWYFDVWGAGTTVTVSS VL: DIQMTQSPSSLSASLGERVSLTCRASQDIGSSLSWLQQEPDGTIKRLIYSTSSLDSGVPKRFSGSRSGSDYSLTISSLESEDFVDYYCLQYASSPWTFGGGTKLEIK
		0.156	6.78e-05	434000					RON-f03 Interceptor (4C04 scFv, Interceptor Pair 2) (other, also called RON-f03 2nd generation interceptor) chain 1: DIQMTQSPASQSASLGESVTITCLASQTIGTWLAWYQQKPGKSPQLLIYAATSLADGVPSRFSASGSGTKFSFKIDSLQSEDFVSYYCQQLYNTPWTFGGGTKLEIKGGGGSGGGGSGGGGSQIQLQQSGPELVKPGTSVKISCKASDYTLTDFYMNWVRQKPGQGLEWIGRIYPGTDKTRYNEKFRDKAILTVDTSSSTAYMQLSSLTSEDTAVYFCARSAYYGNYVAMDYWGQGTSVTVSSSASTKGPSVFPLAPSSKSTSGGTAALGCLVKDYFPEPVTVSWNSGALTSGVHTFPAVLQSSGLYSLSSVVTVPSSSLGTQTYICNVNHKPSNTKVDKKVRTEPKSSDKTHTCPPCPSGAPELLGGPSVFLFPPKPKDTLMISRTPEVTCVVVDVSHEDPEVKFNWYVDGVEVHNAKTKPREEQYNSTYRVVSVLTVLHQDWLNGKEYKCKVSNKALPAPIEKTISKAKGQPREPQVYTLPPSRDELTKNQVSLTCLVKGFYPSDIAVEWESNGQPENNYKTTPPVLDSDGSFFLYSKLTVDKSRWQQGNVFSCSVMHEALHNHYTQKSLSLSPGKSRTVAAPSVFIFPPSDEQLKSGTASVVCLLNNFYPREAKVQWKVDNALQSGNSQESVTEQDSKDSTYSLSSTLTLSKADYEKHKVYACEVTHQGLSSPVTKSFNRGE chain 2: TVAAPSVFIFPPSDEQLKSGTASVVCLLNNFYPREAKVQWKVDNALQSGNSQESVTEQDSKDSTYSLSSTLTLSKADYEKHKVYACEVTHQGLSSPVTKSFNRGERTEPKSSDKTHTCPPCPSGAPELLGGPSVFLFPPKPKDTLMISRTPEVTCVVVDVSHEDPEVKFNWYVDGVEVHNAKTKPREEQYNSTYRVVSVLTVLHQDWLNGKEYKCKVSNKALPAPIEKTISKAKGQPREPQVYTLPPSRDELTKNQVSLTCLVKGFYPSDIAVEWESNGQPENNYKTTPPVLDSDGSFFLYSKLTVDKSRWQQGNVFSCSVMHEALHNHYTQKSLSLSPGKSRASTKGPSVFPLAPSSKSTSGGTAALGCLVKDYFPEPVTVSWNSGALTSGVHTFPAVLQSSGLYSLSSVVTVPSSSLGTQTYICNVNHKPSNTKVDKKV
	binds				binds	0.15	9.49e-05	632000	RON-f01 murine antibody (4C04 hybridoma) (antibody, V domains shown, Murine monoclonal antibody from a hybridoma; also called RON-f01 Antibody) VH: QIQLQQSGPELVKPGTSVKISCKASDYTLTDFYMNWVRQKPGQGLEWIGRIYPGTDKTRYNEKFRDKAILTVDTSSSTAYMQLSSLTSEDTAVYFCARSAYYGNYVAMDYWGQGTSVTVSL VL: DIQMTQSPASQSASLGESVTITCLASQTIGTWLAWYQQKPGKSPQLLIYAATSLADGVPSRFSASGSGTKFSFKIDSLQSEDFVSYYCQQLYNTPWTFGGGTKLEIK
